This is an account of results in the nanobody polyreactivity screen of Harvey et al. (2022).

The data set can be described thus: yeast display, Sf9 membrane polyspecificity reagent, FACS + sequencing; frameworks hold sequencing errors. In short, it runs like this:
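A synthetic nanobody library was expressed on Saccharomyces cerevisiae BJ5465 by galactose induction for 36–48 hours. The library was stained for 1 hour at 4 °C with 10% biotinylated, detergent-solubilized Sf9 membrane reagent and enriched with streptavidin microbeads before FACS. Low and high (top ~1%) gates were set on anti-HA fluorescence for expression and streptavidin fluorescence for reagent binding, and each polyreactivity label reflects the gate of origin.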
As to “QVQLVESGGGVVQAGGSLRLSCAASGSHFISNAMGWYRQAPGKERELVAAITSSGGSTYYADSVKGRFTISRDNAKNTVYLQMNSLKPEVTAVYYCAARPGRNYYYWGQGTQVTVSS”, the “polyreactivity (PSR sort gate)” value was “high polyreactivity”.
The entry for “QVQLVESGGGVVQAGGSLRLSCAASGSIFNRYAMGWYRQAPGKERELVAATSSGGSTYYADSVKGRFTISRDNAKNTVYLQMNSLKPEDTAVYYCAARSRYRSTPPTYDYWGQGTQVTVSS” is “low polyreactivity”; for “QVQLVESGGGVVQAGGSLRLSCAASGSIFRRNAMGWYRQAPGKERELVAAISWTTGSTYYADSVKGRFTISRDNAKNTVYLLMNSLKAEDTSVYYCAAVIRSRYSYYEYDFWGQGTKVTVSS” it is “high polyreactivity”.
With “QVQLVESGGGVVQAGGSLRLSCAASGSTFTTNAMGWYRQAPGKDREFVAAIRRTSGRTYYADSVKGRFTISRDNAKNTVYLQMNSLKPEDTAVFYCATDSYSPYGLKSRYDYWGQGTQVTVSS”, the “polyreactivity (PSR sort gate)” value is given as “high polyreactivity”.
Next, “QVQLVESGGGVVQAGGSLRVRCAASGIIYFIDYAMGWYRQAPGKERELVAAITSGGSTNYADSVKGRFTISRDNAKYTVYLQKNRLKPEDTAVYYCAAYLYSGSQYYFWGQGTQVIVSS”: “high polyreactivity”; “QVQLVESGGGVVQAGGSLRVSCAASGRIFYGNAMGWYRQAPGKERELVAVISSGGSTYYADSVKGRFTISRDNAKNTVYFQMNSLKPEDTAVYYCAAQVRKYKDGSFRYHYWGQGTQVNVSS”: “high polyreactivity”.
On to “QVQLVESGGGVVQAGRSLRLSCAASGSTFWAYLMGWYRQAPGIERELVASISRGGSTNYTDSVKGRFTISRDNAKNTVYLQMNSLKPEDTEVYYCAKRPYPYKYDYWGQGRQVTVSS”, for which the “polyreactivity (PSR sort gate)” value is on record as “high polyreactivity”.
As to “QVQLVESGGGVVQARGSLRLSCAASGSTFDVNAMGWYRQAPWKDRELVAAISWNSGTTYYADSVKGRFTISRDNAKNSVYLQMNSLKPEDTAVYYCAASYGTGRRSKYGYWGQGTQVTVSS”, the “polyreactivity (PSR sort gate)” value was “high polyreactivity”.
“QVQLVESGGPLVQAGGSLLLSCAASGFTFTVYAKGWYRQAPGKERELVAAITYNGGSTYYADSVKGRFTISRDNAKNTVYLQMNSLKPEDTAVYYCAAEVFLRSLGYWYDFWGLGTQVTVSS”: the “polyreactivity (PSR sort gate)” value is reported as “high polyreactivity”.
Next, “QVQLVESGGRIVQAGGSLRLICAASGRIFVRNAMGWYRQAPGKERELVAAITTSGGRTYYADSVKGRFTISRDNAKNTVYLQMNSLKPEDTAVYYCAADTRYRNYPYYYWGQGTQVTVSS”: “high polyreactivity”; “QVQLVESGGRIVQAGGSLRLICASSGLIFYDNMGWYRQAPGKERELVAAISSSGGSRTYADSVKGRFTISRDNAKNTVYLQMNSLKPEDTAVYYCAVDKHYYGRYGVTYDYDYWGQGTQVTVSS”: “low polyreactivity”.
Next, “QVQLVESGGRIVQAGGSLRLSCAASGFIYSKYAMGWSRPAPGKEGQLVAAISSSGGYTYYADSVKGRFTISRDNAKNTVYLQMNSLKPEATAVYYCNADYLFYAFDYWGHGTQVTVSS”: “low polyreactivity”; “QVQLVESGGRIVQAGGSLRLSCAASGSTFLYYDMGWYRQAPGKERELVAAITNGGNTYYADSVKGRFTISRDNAKNTVYLQKNSRKPEDTAVYYCAKLYTDAIVWSAYDYWGQGTQVTVSS”: “low polyreactivity”.
Regarding “QVQLVESGGRLFQAGGSLRLSCAACGFTIPYYAMRWYRKAPGKERELVAAIDWTGGSTYYADSVKGRFTISRDKAKNTVYLQMNSRKPEETEVYYCAREVDYSISSPTPPVVELDYWGQGTQVTVSS”, the “polyreactivity (PSR sort gate)” value is given as “low polyreactivity”.
Next, “QVQLVESGGRLFQAGGSLRLSCAASGRIFYHNALGWYRQAPGKERELVADNASGGSTYYADSVKARFTISRDNAKNTVYLQMNSLKPEDTAVYYCAAEDEDSIFPFPYGAGSLFDFWGQGTQVTVSS”: “low polyreactivity”; “QVQLVESGGRLGQAVGSLRLSCAASGSIFLQNAMGWYRQAPGKERELVAAITNGGSTNYADSVKGRCTISRDNAKNTVYLQINSLKPEDTAVYYCAAYPLYTGSYDRGGYWGLGTQVTVSS”: “low polyreactivity”; “QVQLVESGGRLVEAGGSLRLSCAASGRTIPAYALGWYRQAPGKERELVAGISYRGGSTYYADSVKGRFTISRDKAKNTVYLPMNSLKPEDTAVYYCARVYSRNKGVYWGQGTQVPVSS”: “low polyreactivity”.
Next, “QVQLVESGGRLVQAGGILRLSCAASGLTFADNAMGWYRQAPGKERELVATISYSGGSTYYADSVKGRFTISRDNAKNTVYLQMNSLKPEDTAVYYCATVWETKAYSRIQWYYYWGQGTQVTVSS”: “low polyreactivity”.
The entry for “QVQLVESGGRLVQAGGRLRLSCAASGFTFGSYAMGWYRQAPGKERELVPSISSAGRTYYADSVKGRFTISRDNAKNTVYLQMNSLKPEDTAVYYCNTDSRVTIYDYDYWGQGTQVTVSS” is “low polyreactivity”.
Consider “QVQLVESGGRLVQAGGSIRLICAASGFTFIGYAMGWYRQAPGKERELVADITYSGSSTYYADSVKGRFTISRDNAKNTVYLQMNSLKPEDTAVYYCAAEAYYYCFDVDYWGQGTLVTVSS”, for which the “polyreactivity (PSR sort gate)” value is “low polyreactivity”.
The entry for “QVQLVESGGRLVQAGGSLLLSCAASGIIFYDYAMGWYRRAPGKERQLVAAITSGGSTNYADSVKGRFTISRDNAKNTVYLQMNSLKPEDTAVYYCAATYWSWISLRWYEYYYWGEGTQVTVSS” is “low polyreactivity”.
Consider “QVQLVESGGRLVQAGGSLRLLCAASGLILHKYAMGWYRQAPGKERELVASINSGANTNYADSVKGRFTISRDNAKNTVYLQMNSLKPEDTAVYYCNADPGFRSGDYGYSSFDYGGQGTQVTVSS”, for which the “polyreactivity (PSR sort gate)” value is “low polyreactivity”.
Consider “QVQLVESGGRLVQAGGSLRLRCAASGRIIAYYAMGWYRQAPGKERELVAAISRSGGSTYYADSVKGRFTISRDTAQNYVYLQMNSLKPEDTAVYYCAASLIVPYATMNYWGQGTQVTVSS”, for which the “polyreactivity (PSR sort gate)” value is on record as “high polyreactivity”.
Next, “QVQLVESGGRLVQAGGSLRLSCAAAGSTIPKYAMGWYRQPPGKERELVAAITWRGGSTYYADSVKGRFTISRDNAKNTVYLQMNSLKPEDTAVDYCAAEPYYPSRMDYWGQGTQVTVSS”: “low polyreactivity”; “QVQLVESGGRLVQAGGSLRLSCAASGFIFPRYTRGWYRQAPGKESELVAGITLRGGSTYYADSVKGRFTISRDNAKNTVYLQMNSLKPEDTAVYYCARGISRGRSFGIGYDYWGQGTQVTVSS”: “low polyreactivity”.
Next, “QVQLVESGGRLVQAGGSLRLSCAASGFIFSRYAMGWSRQAPGKERELVAAISRGGSTNYADSVMGRFTISRDNAKNTVYLQMNSLKPEDTAVYYCAVRQIVRYYYWGQGTQVTVSS”: “high polyreactivity”; “QVQLVESGGRLVQAGGSLRLSCAASGFILLAYAMGWYRQAHGKERELVAAITSGGSTHYADSVKGRFTISRDNAKNTVYLQMNSLKPEDTAVYYCAKDTVFRYSGNTYGYWGQGTQVTVSS”: “low polyreactivity”.
For the sequence “QVQLVESGGRLVQAGGSLRLSCAASGFILTSYAMGWYRQAPGKERELVAAISSRGGRTYYADSVKGRFTISRDNAKNTVYLQMNSLKPEDTAVYYCNAVVYVVGDFDYWGQGTQVTGSS”, the “polyreactivity (PSR sort gate)” value is on record as “high polyreactivity”.
Next, “QVQLVESGGRLVQAGGSLRLSCAASGGTFGQYAMGWYRQAPGKERELVAAISRGGDSTYSADSVKGRFTISRDNAKNTVYLQMNSLKPADTAVYYCAAPGISYYSRYYYRTYDYWGQGTQVTVSS”: “high polyreactivity”; “QVQLVESGGRLVQAGGSLRLSCAASGIIFPYYAMGWYRPAPGTVRELVAGISSSGGITYADSVKGRYTISRDNAKNTVYLPMNSLKPEDTAVYYCNAEYQWLEYDYWGQGTQVTVSS”: “low polyreactivity”; “QVQLVESGGRLVQAGGSLRLSCAASGITLNRNAMGWYRQEPGKESELVARISRRGGTTYYADSVKGRFTISRYYAKNTVYLQMNSLKPEDTAVYYCAASYSDRKLTDYWGQRTQVTVSS”: “high polyreactivity”.
On to “QVQLVESGGRLVQAGGSLRLSCAASGLIFADYTMGWYRQAPGKERELVAVITDGDSTYYADSVKGRFTISRDNAKNTVYLQMNSLKPEDTAVYYCAARSAILKSGYLMDYWGQGTQVTVSS”, for which the “polyreactivity (PSR sort gate)” value is “low polyreactivity”.
Next, “QVQLVESGGRLVQAGGSLRLSCAASGPIFAPYDMGWYRQAPGKERELVAAISRSGGSTYYADSVKGRFTISRDNAKNTVYLQMNSLKPEETPVYSCAAGLFVGFDYWGQGTQVTVTS”: “high polyreactivity”.
Next, “QVQLVESGGRLVQAGGSLRLSCAASGRIFAAYAMGWYRQAPGKEREFVAGITRTGGSTYYADSVKGRFTISRDHAKNTVYFQMNSLKPEDTAVYYCAASLVYYGHAYNYWGQGTQVTVSS”: “high polyreactivity”; “QVQLVESGGRLVQAGGSLRLSCAASGRIFVRYAMGWYRQAPGKERELVAAISTRGGSTYYADSVKGRFTISRDNAKNTVYLQMNSLNPEDTAVYYCAAGPRPRPTDYWGQGTQVTVSS”: “high polyreactivity”; “QVQLVESGGRLVQAGGSLRLSCAASGRIFWGYALGRYRQAHGKVSELVAAITRSGGRTYYADSVKGRFTISRDNAKNTVYLQMTSLKREDTAVYYCNAVNSLQPYKFDYWVQGTQVTVSS”: “high polyreactivity”.
The entry for “QVQLVESGGRLVQAGGSLRLSCAASGRIILRNAMGWYRQAPGKERELVAAISSSGGRKYYADSVKGRFTISRDNAKNTVYLQMNSLKPEDTAVYYCNARWHGSFDYWGQGTQVTVSS” is “low polyreactivity”; for “QVQLVESGGRLVQAGGSLRLSCAASGRTFYHNAMGWYRQAPGKERELVAVITWSGGSTYYADSVKGRFTISRDNAKNTVYLQMNSLKPEDTAVYYCATRRYGYERILYNYWGQGTQVTVSS” it is “high polyreactivity”.
Consider “QVQLVESGGRLVQAGGSLRLSCAASGRTIYGNVMGWYRQAPGKERELVAVISWSSGSTSYADSVKGRFTISRDNAKNTVYLQMKSLKPEDTAVFYCAADSVTRPAGDYWGHGTQVTVSS”, for which the “polyreactivity (PSR sort gate)” value was “low polyreactivity”.
Next, “QVQLVESGGRLVQAGGSLRLSCAASGSIFALYAMGWYRQQPGKVRELVAAIRRGTSTKYADSVKGRFTISRDNAKNTVNLHMKSLKPEDTAVYYCNARYYYCSSISRWSDYWVQGTQVTVSS”: “high polyreactivity”; “QVQLVESGGRLVQAGGSLRLSCAASGSIFFSNAMGWYRQAPGKERELVAAITSTGGSTYYADSVKGRFTISRDNAKNTVYLQMNSLKPEDTAVYYCAAASRRGYYYWGQGTQVTVSS”: “high polyreactivity”.
